B1: OR4K15 (parent)
chain: GUUAACGGUCAUAGGCCAUGGAAACUAGGAGCACCAUUUCGCUGCCAGUGAAGAAAUGAACAAAGAAAAUCUGGGCCAGGCAGGCAUCAAAAGAAAUAGUCUUGCGCUCAACCAGAAAGUCUGUAAUCAUUUUAAGGGUA

Variants of: B1
Test: self-cleavage, relative activity (ratio to wild type); higher = more cleavage; in vitro, sequencing; the parent is a self-cleaving ribozyme

Going from A92G C109U to A11G U43A, the self-cleavage rises from 0.59 to 1.12.

First: C85U U102C
Second: A23C A95G
The self-cleavage of the first is lower: 0.67 for the first, 1.67 for the second.

Going from A4G C42U to A62U A118G, the self-cleavage rises from 0.81 to 1.9.

Compared with A78U G115U, U120A U133C is higher in self-cleavage: 0.03 for the first, 1.41 for the second.

Compared with C32U U124C, A33G C113A is lower in self-cleavage: 1.15 for the first, 0.01 for the second.

Going from U2A A89U to A13G U87A, the self-cleavage falls from 1.2 to 0.92.

First: G84U
Second: A64G U72A
The self-cleavage of the first is higher: 0.7 for the first, 0.35 for the second.

First: U26C U43A
Second: U2C A60U
The self-cleavage of the first is lower: 1.29 for the first, 1.67 for the second.

Compared with A54U A129G, U49C A68G is higher in self-cleavage: 0.88 for the first, 1.55 for the second.

First: C85G A135G
Second: U97G
The self-cleavage of the first is lower: 0.85 for the first, 1.77 for the second.

Compared with A63G A94U, A13U U132A is lower in self-cleavage: 0.98 for the first, 0.96 for the second.

Compared with A68U A82G, U2C G74A is lower in self-cleavage: 0.75 for the first, 0.18 for the second.

Compared with U12A A135U, A11U A62G is lower in self-cleavage: 1.29 for the first, 0.96 for the second.

First: A30G U127C
Second: G106A A111G
The self-cleavage of the first is higher: 0.97 for the first, 0.01 for the second.

First: A11G A92U
Second: U102C A110G
The self-cleavage of the first is higher: 1.26 for the first, 0.15 for the second.

First: G15U A82U
Second: C76A A111G
The self-cleavage of the first is higher: 0.23 for the first, 0.02 for the second.

First: A82C A125U
Second: C34U U72C
The self-cleavage of the first is lower: 0 for the first, 0.17 for the second.

Compared with A22G A95G, A4G A91G is lower in self-cleavage: 1.75 for the first, 1.13 for the second.

First: U37C G115U
Second: A62C A92G
The self-cleavage of the first is lower: 0.37 for the first, 1.58 for the second.

Going from A18G A66G to A78G U102A, the self-cleavage falls from 1.81 to 0.11.

Going from U39A A90G to A94G U97C, the self-cleavage rises from 0.95 to 1.12.

Going from U19A A66G to A92U A110U, the self-cleavage rises from 1.27 to 1.74.

Going from A62G A110U to U19A A110C, the self-cleavage falls from 2.32 to 0.3.

Compared with A22U U49C, U38C A110U is higher in self-cleavage: 0.77 for the first, 1.46 for the second.

First: A92G U131C
Second: U43C U132C
The self-cleavage of the first is lower: 0.49 for the first, 1.27 for the second.

Compared with A51U U108C, A18C A96U is higher in self-cleavage: 0.02 for the first, 0.98 for the second.

First: A24G A92U
Second: U100C A134U
The self-cleavage of the first is lower: 1.45 for the first, 2.45 for the second.

Compared with U87C A140G, U38C A56G is higher in self-cleavage: 1.49 for the first, 1.5 for the second.

Going from A78C A111U to A5G U97A, the self-cleavage rises from 0.01 to 1.57.

Compared with U57C C101A, C81A A114U is lower in self-cleavage: 0.1 for the first, 0.03 for the second.

First: C34U U127C
Second: G74A A82U
The self-cleavage of the first is higher: 1.39 for the first, 0.32 for the second.

Compared with A64U A90G, A94G U100C is higher in self-cleavage: 0.32 for the first, 2.37 for the second.

Going from A18G U72C to A94U A116C, the self-cleavage falls from 0.38 to 0.07.

First: A66G A67C
Second: A68G U103A
The self-cleavage of the first is higher: 1.66 for the first, 0.5 for the second.

First: A67U U122A
Second: A59G U87A
The self-cleavage of the first is higher: 1.36 for the first, 1.11 for the second.

First: C16U A110U
Second: A98G U108C
The self-cleavage of the first is higher: 0.72 for the first, 0 for the second.

Compared with C121A U122C, A92G A129G is lower in self-cleavage: 1.62 for the first, 0.74 for the second.

Compared with G28A U120C, C16U A114G is lower in self-cleavage: 1.28 for the first, 0.2 for the second.

Going from A90G A92G to A62G G136A, the self-cleavage rises from 1.01 to 2.2.

Compared with U39A G115C, A95U C105U is lower in self-cleavage: 0.52 for the first, 0.45 for the second.

Compared with C6U G106U, A4G G83A is higher in self-cleavage: 0.06 for the first, 1.44 for the second.

Compared with G20U A111G, U3C U26C is higher in self-cleavage: 0.04 for the first, 1.29 for the second.
